The text below walks through data of the supplement of paper PMC10567573.

First the molecules themselves.
B1: ANKRD9 (parent)
chain: LLEDMRASEAFHWDERGRAAAYSP
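Note: lentivirally expressed fusions sorted by FACS into six bins by GFP to DsRed ratio, PSI derived from sequencing read proportions per bin multiplied by bin number.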

Variants of B1 are the subject of this data set. Description: protein stability index of a GFP-peptide fusion (GPS, HEK-293T) (PSI 1-6); higher = more stable. The following applies: c terminus: a fixed tail appended.
As for LLEDMRASEAFHWDESGRAAAYSP, the protein stability index worked out at 1.44.

Consider LLEDMRASEAFHWDEAGRAAAYSP, for which the protein stability index is 2.24.

For LLEDMRASEAFHWDEIGRAAAYSP, the protein stability index came out at 3.12.

For the variant LLEDMRASEAFHWDEFGRAAAYSP, the protein stability index stood at 1.86.

Take LLEDMRASEAFHWDENGRAAAYSP: the protein stability index worked out at 1.93.

Consider LLEDMRASEAFHWDECGRAAAYSP, for which the protein stability index worked out at 1.56.

In the case of LLEDMRASEAFHWDEEGRAAAYSP, the protein stability index amounted to 1.93.

As for LLEDMRASEAFHWDEGGRAAAYSP, the protein stability index came out at 1.88.

Regarding LLEDMRASEAFHWDEWGRAAAYSP, the protein stability index was 1.58.

For LLEDMRASEAFHWDEHGRAAAYSP, the protein stability index turned out to be 2.44.

Regarding LLEDMRASEAFHWDEMGRAAAYSP, the protein stability index was 1.32.

Take LLEDMRASEAFHWDETGRAAAYSP: the protein stability index was found to be 1.74.

Regarding LLEDMRASEAFHWDEQGRAAAYSP, the protein stability index worked out at 1.9.

As to LLEDMRASEAFHWDELGRAAAYSP, the protein stability index was found to be 2.41.

Consider LLEDMRASEAFHWDEVGRAAAYSP, for which the protein stability index is 1.79.

For LLEDMRASEAFHWDEKGRAAAYSP, the protein stability index worked out at 1.32.

Turning to LLEDMRASPAFHWDERGRAAAYSP, the protein stability index is 2.8.

With LLEDMRASSAFHWDERGRAAAYSP, the protein stability index was determined as 3.

With LLEDMRASIAFHWDERGRAAAYSP, the protein stability index was determined as 1.79.

For LLEDMRASAAFHWDERGRAAAYSP, the protein stability index worked out at 3.12.

LLEDMRASQAFHWDERGRAAAYSP: the protein stability index was 4.46.

With LLEDMRASMAFHWDERGRAAAYSP, the protein stability index came out at 2.46.

Take LLEDMRASWAFHWDERGRAAAYSP: the protein stability index was determined as 1.32.

As to LLEDMRASKAFHWDERGRAAAYSP, the protein stability index was found to be 3.29.

Turning to LLEDMRASRAFHWDERGRAAAYSP, the protein stability index came to 2.77.

Consider LLEDMRASGAFHWDERGRAAAYSP, for which the protein stability index was determined as 2.06.

LLEDMRASTAFHWDERGRAAAYSP: the protein stability index turned out to be 2.96.

Take LLEDMRASVAFHWDERGRAAAYSP: the protein stability index was 2.19.

With LLEDMRASYAFHWDERGRAAAYSP, the protein stability index was 2.48.

Consider LLEDMRASLAFHWDERGRAAAYSP, for which the protein stability index came out at 1.89.

Regarding LLEDMRASFAFHWDERGRAAAYSP, the protein stability index turned out to be 2.32.

For the variant LLEDMRASHAFHWDERGRAAAYSP, the protein stability index was determined as 3.31.

With LLEDMRASDAFHWDERGRAAAYSP, the protein stability index is 2.99.

In the case of LLEDMRASEAFTWDERGRAAAYSP, the protein stability index worked out at 2.21.

As for LLEDMRASEAFMWDERGRAAAYSP, the protein stability index is 1.68.

Regarding LLEDMRASEAFLWDERGRAAAYSP, the protein stability index was found to be 2.68.

With LLEDMRASEAFCWDERGRAAAYSP, the protein stability index worked out at 3.35.

For the variant LLEDMRASEAFFWDERGRAAAYSP, the protein stability index is 2.29.

As to LLEDMRASEAFRWDERGRAAAYSP, the protein stability index came out at 2.2.

Regarding LLEDMRASEAFKWDERGRAAAYSP, the protein stability index came to 2.5.

As to LLEDMRASEAFDWDERGRAAAYSP, the protein stability index amounted to 2.1.

For the variant LLEDMRASEAFAWDERGRAAAYSP, the protein stability index is 3.33.

Take LLEDMRASEAFGWDERGRAAAYSP: the protein stability index stood at 2.49.

Consider LLEDMRASEAFVWDERGRAAAYSP, for which the protein stability index amounted to 1.34.

LLEDMRASEAFEWDERGRAAAYSP: the protein stability index worked out at 1.83.

As for LLEDMRASEAFPWDERGRAAAYSP, the protein stability index came to 1.95.

Take LLEDMRASEAFIWDERGRAAAYSP: the protein stability index came out at 2.61.

In the case of LLEDMRASEAFHYDERGRAAAYSP, the protein stability index came to 1.39.

Turning to LLEDMRASEAFHKDERGRAAAYSP, the protein stability index came out at 2.93.

Consider LLEDMRASEAFHVDERGRAAAYSP, for which the protein stability index was determined as 2.05.

Turning to LLEDMRASEAFHRDERGRAAAYSP, the protein stability index worked out at 2.94.

In the case of LLEDMRASEAFHIDERGRAAAYSP, the protein stability index was determined as 1.87.

For LLEDMRASEAFHCDERGRAAAYSP, the protein stability index stood at 2.53.

Take LLEDMRASEAFHFDERGRAAAYSP: the protein stability index came to 2.05.

Regarding LLEDMRASEAFHDDERGRAAAYSP, the protein stability index amounted to 2.24.

Turning to LLEDMRASEAFHGDERGRAAAYSP, the protein stability index was 2.61.

In the case of LLEDMRASEAFHLDERGRAAAYSP, the protein stability index is 2.41.

Consider LLEDMRASEAFHEDERGRAAAYSP, for which the protein stability index amounted to 2.06.

Regarding LLEDMRASEAFHNDERGRAAAYSP, the protein stability index was 2.2.

On to LLEDMRASEAFHPDERGRAAAYSP, for which the protein stability index is 2.74.

On to LLEDMRASEAFHHDERGRAAAYSP, for which the protein stability index was found to be 2.66.

For LLEDMRASEAFHADERGRAAAYSP, the protein stability index was determined as 2.16.

LLEDMRASEAFHMDERGRAAAYSP: the protein stability index was 1.84.

For LLEDMRASEAFHWDFRGRAAAYSP, the protein stability index stood at 2.95.

For LLEDMRASEAFHWDVRGRAAAYSP, the protein stability index came out at 1.52.

For LLEDMRASEAFHWDHRGRAAAYSP, the protein stability index was found to be 2.68.

LLEDMRASEAFHWDMRGRAAAYSP: the protein stability index stood at 1.32.

Regarding LLEDMRASEAFHWDLRGRAAAYSP, the protein stability index was found to be 1.5.

As for LLEDMRASEAFHWDARGRAAAYSP, the protein stability index was 1.31.

As for LLEDMRASEAFHWDIRGRAAAYSP, the protein stability index is 2.83.

As for LLEDMRASEAFHWDTRGRAAAYSP, the protein stability index worked out at 1.91.

Regarding LLEDMRASEAFHWDPRGRAAAYSP, the protein stability index was 1.88.

With LLEDMRASEAFHWDCRGRAAAYSP, the protein stability index was 2.68.

Take LLEDMRASEAFHWDGRGRAAAYSP: the protein stability index was 1.7.

As to LLEDMRASEAFHWDKRGRAAAYSP, the protein stability index was 1.8.

Consider LLEDMRASEAFHWDQRGRAAAYSP, for which the protein stability index was determined as 1.94.

On to LLEDMRASEAFHWDSRGRAAAYSP, for which the protein stability index worked out at 1.64.

As for LLEDMRASEAFHWDDRGRAAAYSP, the protein stability index turned out to be 1.56.

With LLEDMRASEAFHWDRRGRAAAYSP, the protein stability index came to 1.58.

For the variant LLEDMRASEAFHWDYRGRAAAYSP, the protein stability index turned out to be 1.81.

In the case of LLEDMRADEAFHWDERGRAAAYSP, the protein stability index worked out at 3.89.

In the case of LLEDMRAIEAFHWDERGRAAAYSP, the protein stability index stood at 1.95.

Turning to LLEDMRAKEAFHWDERGRAAAYSP, the protein stability index was determined as 3.96.

For LLEDMRAQEAFHWDERGRAAAYSP, the protein stability index worked out at 3.91.

LLEDMRAHEAFHWDERGRAAAYSP: the protein stability index was found to be 3.13.

Take LLEDMRAREAFHWDERGRAAAYSP: the protein stability index turned out to be 2.88.

Turning to LLEDMRAYEAFHWDERGRAAAYSP, the protein stability index is 2.7.

For LLEDMRAMEAFHWDERGRAAAYSP, the protein stability index is 3.04.

In the case of LLEDMRAFEAFHWDERGRAAAYSP, the protein stability index stood at 3.31.

For the variant LLEDMRAPEAFHWDERGRAAAYSP, the protein stability index stood at 3.3.

On to LLEDMRACEAFHWDERGRAAAYSP, for which the protein stability index was found to be 2.5.

For the variant LLEDMRAGEAFHWDERGRAAAYSP, the protein stability index turned out to be 2.19.

LLEDMRALEAFHWDERGRAAAYSP: the protein stability index is 2.73.

With LLEDMRANEAFHWDERGRAAAYSP, the protein stability index came to 4.13.
